“And” between values parts separate entries of the source, which are not always exact repeats. Equal values may be shown once.
Molecular target: T1, human integrin avb8 (human)
T1 chain 1: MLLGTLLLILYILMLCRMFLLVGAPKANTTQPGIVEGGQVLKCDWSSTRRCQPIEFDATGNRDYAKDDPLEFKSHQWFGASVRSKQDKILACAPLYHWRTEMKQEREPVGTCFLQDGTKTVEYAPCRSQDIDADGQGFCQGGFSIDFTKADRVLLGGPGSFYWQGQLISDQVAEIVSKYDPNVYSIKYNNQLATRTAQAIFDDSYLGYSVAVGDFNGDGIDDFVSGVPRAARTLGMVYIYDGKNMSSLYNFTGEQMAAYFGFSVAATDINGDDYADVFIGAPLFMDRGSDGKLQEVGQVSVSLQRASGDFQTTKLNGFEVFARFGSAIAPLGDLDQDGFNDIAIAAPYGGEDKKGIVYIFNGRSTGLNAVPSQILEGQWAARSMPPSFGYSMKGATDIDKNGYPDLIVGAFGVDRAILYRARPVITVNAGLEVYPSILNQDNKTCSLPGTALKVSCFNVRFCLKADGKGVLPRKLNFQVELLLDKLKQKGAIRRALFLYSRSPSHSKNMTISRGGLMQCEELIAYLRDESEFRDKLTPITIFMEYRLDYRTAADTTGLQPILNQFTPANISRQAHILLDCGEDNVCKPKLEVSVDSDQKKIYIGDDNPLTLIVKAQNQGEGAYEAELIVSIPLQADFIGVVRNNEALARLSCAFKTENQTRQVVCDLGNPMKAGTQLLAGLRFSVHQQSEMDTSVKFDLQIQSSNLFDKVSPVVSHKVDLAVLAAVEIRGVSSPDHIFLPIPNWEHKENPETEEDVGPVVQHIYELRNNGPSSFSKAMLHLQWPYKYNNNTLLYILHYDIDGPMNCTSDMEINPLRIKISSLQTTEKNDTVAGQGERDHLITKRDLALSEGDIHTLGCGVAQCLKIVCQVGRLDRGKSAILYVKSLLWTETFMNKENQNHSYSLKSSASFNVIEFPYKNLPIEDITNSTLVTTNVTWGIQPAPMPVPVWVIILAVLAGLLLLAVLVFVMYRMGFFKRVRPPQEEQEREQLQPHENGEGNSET
T1 chain 2: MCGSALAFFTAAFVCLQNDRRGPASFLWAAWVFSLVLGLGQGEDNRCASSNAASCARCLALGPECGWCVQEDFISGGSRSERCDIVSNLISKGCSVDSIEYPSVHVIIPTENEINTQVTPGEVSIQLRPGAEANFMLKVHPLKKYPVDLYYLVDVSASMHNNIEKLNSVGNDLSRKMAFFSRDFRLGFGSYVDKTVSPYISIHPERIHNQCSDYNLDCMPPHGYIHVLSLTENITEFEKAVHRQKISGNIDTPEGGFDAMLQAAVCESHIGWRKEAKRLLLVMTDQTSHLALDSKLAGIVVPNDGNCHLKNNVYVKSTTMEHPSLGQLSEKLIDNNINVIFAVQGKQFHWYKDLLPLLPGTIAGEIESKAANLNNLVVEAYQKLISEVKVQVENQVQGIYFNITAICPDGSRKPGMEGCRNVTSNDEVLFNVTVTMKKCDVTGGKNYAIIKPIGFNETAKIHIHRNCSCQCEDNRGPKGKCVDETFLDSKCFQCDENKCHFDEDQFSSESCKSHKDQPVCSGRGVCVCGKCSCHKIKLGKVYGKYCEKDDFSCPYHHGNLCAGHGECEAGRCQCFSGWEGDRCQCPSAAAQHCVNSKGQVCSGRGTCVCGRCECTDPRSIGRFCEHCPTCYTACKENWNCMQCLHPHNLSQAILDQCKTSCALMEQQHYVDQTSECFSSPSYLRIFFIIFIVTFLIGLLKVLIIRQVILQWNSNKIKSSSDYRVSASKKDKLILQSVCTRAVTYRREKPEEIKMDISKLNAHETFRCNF
Experiment: FACS U251 cells

B1: ADWA11 2.4 IgG (antibody)
chain 1: EVQLVESGGGLVQPGGSLRLSCAASGFNIKDYYMNWVRQAPGKGLEWVGWIDPDQGNTIYEPKFQGRFTISADTSKNSAYLQMNSLRAEDTAVYYCARRLLMDYWGQGTLVTVSSASTKGPSVFPLAPSSKSTSGGTAALGCLVKDYFPEPVTVSWNSGALTSGVHTFPAVLQSSGLYSLSSVVTVPSSSLGTQTYICNVNHKPSNTKVDKKVEPKSCDKTHTCPPCPAPEAAGAPSVFLFPPKPKDTLMISRTPEVTCVVVDVSHEDPEVKFNWYVDGVEVHNAKTKPREEQYNSTYRVVSVLTVLHQDWLNGKEYKCKVSNKALPAPIEKTISKAKGQPREPQVYTLPPSREEMTKNQVSLTCLVKGFYPSDIAVEWESNGQPENNYKTTPPVLDSDGSFFLYSKLTVDKSRWQQGNVFSCSVMHEALHNHYTQKSLSLSPGK
chain 2: DIQMTQSPSSLSASVGDRVTITCRSTKSLSHFNGNTYLFWYQQKPGKAPKRLIYYMSSLASGVPSRFSGSGSGTDFTLTISSLQPEDFATYYCQQSLEYPFTFGGGTKVEIKRTVAAPSVFIFPPSDEQLKSGTASVVCLLNNFYPREAKVQWKVDNALQSGNSQESVTEQDSKDSTYSLSSTLTLSKADYEKHKVYACEVTHQGLSSPVTKSFNRGEC
Q: For B1, which EC50 is on record?
A: 0.256 nM and 0.126 nM

Source: US20220289850 (published 2022)
